According to patent US20220220215A1:

B1: TPP-1246 CD137A-6GS-HSA2-6GS-PD138G7(G109D) (bispecific antibody)
chain: EVQLVESGGGLVQPGGSLRLSCAASGFTLSNYWMNWVRQAPGKGLEWVANINQDGSERYYVDSVKGRFTISRDNAKNSLYLQMNSLRAEDTAVYYCARGGEGYGVDHYGLDVSGQGTTVTVSSGGGGSGGGGSGGGGSGGGGSGGGGSGGGGSEVQLVESGGGLVKPGGSLRLSCAASGFTFSNYNMNWVRQAPGKGLEWVSSISSAGTHIYYADSVKGRFTISRDNAKNSLYLQMNSLRAEDTAVYYCARDPHSTGWYKDFDYWGQGTLVTVSSGGGGSGGGGSGGGGSGGGGSGGGGSGGGGSEVQLVESGGGVVRPGGSLRLSCAASGFTFDDYAMSWVRQAPGKGLEWVSGITWNGGSTGYADSVKDRFTISRDNAKNSLYLQMNSLRAEDTALYYCVRDKYSYAWSYDDFDIWGQGTMVTVSS
B2: TPP-1290 PD138G7(G109D)-6GS-CD137A-6GS-HSA2 (bispecific antibody)
chain: EVQLVESGGGVVRPGGSLRLSCAASGFTFDDYAMSWVRQAPGKGLEWVSGITWNGGSTGYADSVKDRFTISRDNAKNSLYLQMNSLRAEDTALYYCVRDKYSYAWSYDDFDIWGQGTMVTVSSGGGGSGGGGSGGGGSGGGGSGGGGSGGGGSEVQLVESGGGLVQPGGSLRLSCAASGFTLSNYWMNWVRQAPGKGLEWVANINQDGSERYYVDSVKGRFTISRDNAKNSLYLQMNSLRAEDTAVYYCARGGEGYGVDHYGLDVSGQGTTVTVSSGGGGSGGGGSGGGGSGGGGSGGGGSGGGGSEVQLVESGGGLVKPGGSLRLSCAASGFTFSNYNMNWVRQAPGKGLEWVSSISSAGTHIYYADSVKGRFTISRDNAKNSLYLQMNSLRAEDTAVYYCARDPHSTGWYKDFDYWGQGTLVTVSS
B3: TPP-1438 CD137A-6GS-HSA2-6GS-PD138G7(G109D)-6GS-PD138G7(G109D) (bispecific antibody)
chain: EVQLVESGGGLVQPGGSLRLSCAASGFTLSNYWMNWVRQAPGKGLEWVANINQDGSERYYVDSVKGRFTISRDNAKNSLYLQMNSLRAEDTAVYYCARGGEGYGVDHYGLDVSGQGTTVTVSSGGGGSGGGGSGGGGSGGGGSGGGGSGGGGSEVQLVESGGGLVKPGGSLRLSCAASGFTFSNYNMNWVRQAPGKGLEWVSSISSAGTHIYYADSVKGRFTISRDNAKNSLYLQMNSLRAEDTAVYYCARDPHSTGWYKDFDYWGQGTLVTVSSGGGGSGGGGSGGGGSGGGGSGGGGSGGGGSEVQLVESGGGVVRPGGSLRLSCAASGFTFDDYAMSWVRQAPGKGLEWVSGITWNGGSTGYADSVKDRFTISRDNAKNSLYLQMNSLRAEDTALYYCVRDKYSYAWSYDDFDIWGQGTMVTVSSGGGGSGGGGSGGGGSGGGGSGGGGSGGGGSEVQLVESGGGVVRPGGSLRLSCAASGFTFDDYAMSWVRQAPGKGLEWVSGITWNGGSTGYADSVKDRFTISRDNAKNSLYLQMNSLRAEDTALYYCVRDKYSYAWSYDDFDIWGQGTMVTVSS
B4: TPP-1439 PD138G7(G109D)-6GS-PD138G7(G109D)-6GS-CD137A-7-6GS-HSA2 (bispecific antibody)
chain: EVQLVESGGGVVRPGGSLRLSCAASGFTFDDYAMSWVRQAPGKGLEWVSGITWNGGSTGYADSVKDRFTISRDNAKNSLYLQMNSLRAEDTALYYCVRDKYSYAWSYDDFDIWGQGTMVTVSSGGGGSGGGGSGGGGSGGGGSGGGGSGGGGSEVQLVESGGGVVRPGGSLRLSCAASGFTFDDYAMSWVRQAPGKGLEWVSGITWNGGSTGYADSVKDRFTISRDNAKNSLYLQMNSLRAEDTALYYCVRDKYSYAWSYDDFDIWGQGTMVTVSSGGGGSGGGGSGGGGSGGGGSGGGGSGGGGSEVQLVESGGGLVQPGGSLRLSCAASGFTLSNYWMNWVRQAPGKGLEWVANINQDGSERYYVDSVKGRFTISRDNAKNSLYLQMNSLRAEDTAVYYCARGGEGYGVDHYGLDVSGQGTTVTVSSGGGGSGGGGSGGGGSGGGGSGGGGSGGGGSEVQLVESGGGLVKPGGSLRLSCAASGFTFSNYNMNWVRQAPGKGLEWVSSISSAGTHIYYADSVKGRFTISRDNAKNSLYLQMNSLRAEDTAVYYCARDPHSTGWYKDFDYWGQGTLVTVSS
B5: TPP-1409 CD137A-1GS-HSA2-1GS-PD138G7(G109D) (bispecific antibody)
chain: EVQLVESGGGLVQPGGSLRLSCAASGFTLSNYWMNWVRQAPGKGLEWVANINQDGSERYYVDSVKGRFTISRDNAKNSLYLQMNSLRAEDTAVYYCARGGEGYGVDHYGLDVSGQGTTVTVSSGGGGSEVQLVESGGGLVKPGGSLRLSCAASGFTFSNYNMNWVRQAPGKGLEWVSSISSAGTHIYYADSVKGRFTISRDNAKNSLYLQMNSLRAEDTAVYYCARDPHSTGWYKDFDYWGQGTLVTVSSGGGGSEVQLVESGGGVVRPGGSLRLSCAASGFTFDDYAMSWVRQAPGKGLEWVSGITWNGGSTGYADSVKDRFTISRDNAKNSLYLQMNSLRAEDTALYYCVRDKYSYAWSYDDFDIWGQGTMVTVSS
B6: TPP-1410 PD138G7(G109D)-1GS-CD137A-6GS-HSA2 (bispecific antibody)
chain: EVQLVESGGGVVRPGGSLRLSCAASGFTFDDYAMSWVRQAPGKGLEWVSGITWNGGSTGYADSVKDRFTISRDNAKNSLYLQMNSLRAEDTALYYCVRDKYSYAWSYDDFDIWGQGTMVTVSSGGGGSEVQLVESGGGLVQPGGSLRLSCAASGFTLSNYWMNWVRQAPGKGLEWVANINQDGSERYYVDSVKGRFTISRDNAKNSLYLQMNSLRAEDTAVYYCARGGEGYGVDHYGLDVSGQGTTVTVSSGGGGSGGGGSGGGGSGGGGSGGGGSGGGGSEVQLVESGGGLVKPGGSLRLSCAASGFTFSNYNMNWVRQAPGKGLEWVSSISSAGTHIYYADSVKGRFTISRDNAKNSLYLQMNSLRAEDTAVYYCARDPHSTGWYKDFDYWGQGTLVTVSS

Molecular target: CD137 and PD1 individually fused to subunits of NanoLuc luciferase, on the same cell (NanoBiT assay cells)
Experiment: NanoBiT cell based protein interaction assay, luminescence on bridging of CD137 and PD1 on one cell

| Binder | EC50 [nM] |
| --- | --- |
| B1 | 0.0251 |
| B2 | 0.0515 |
| B3 | 0.105 |
| B4 | 0.148 |
| B5 | 0.0259 |
| B6 | 0.0532 |

Molecular target: human CD137 and human PD-1 on stimulated primary human T cells (human)
Experiment: flow cytometry, labelled VH on activated CD137+ human T cells (human control), n = 1

| Binder | EC50 [nM] |
| --- | --- |
| B1 | 3.75 |
| B2 | 6.87 |

Molecular target: cynomolgus CD137 and cynomolgus PD-1 on activated CD137+ cynomolgus T cells (cynomolgus) (UniProt A9YYE7)
Experiment: flow cytometry, labelled VH on activated CD137+ cynomolgus T cells, n = 3

| Binder | EC50 [nM] |
| --- | --- |
| B1 | 3.63 |
| B2 | 7.17 |

Molecular target: human CD137 and human PD-1 on stimulated primary human T cells (human)
Experiment: flow cytometry, AF488-labelled VH on pre-stimulated human CD8+ cells, average of 2 donors

| Binder | EC50 [nM] |
| --- | --- |
| B1 | 2.22 |
| B2 | 1.49 |
